Data: the RNAGym collection of RNA variant scans (doi:10.1073/pnas.2313332121)

B1: TPR t1 (parent)
chain: GACCAAUCUGCCCUCAGAGCUCGAGAACAUCUUCGGAUGCAGAGGAGGCAGGCUUCGGUGGCGCGAUAGCGCCAACGUCCUCAACCUCCAAUGCAUCCCACCACAUGAUGAUGCCUGAAGAGCCUUGGUUUUUUG

Variants of: B1
Assay: polymerase ribozyme fitness, log enrichment relative to wild type (log ratio); higher = more active; in vitro selection for triplet polymerase activity
Outline: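 The heterodimeric triplet polymerase ribozyme's subunits were each mutagenized into PCR-built libraries and transcribed. Every library was selected once, in triplicate, by annealing with a biotinylated primer, the partner subunit and triplets, incubating frozen at −7 °C, gel-excising extended constructs, capturing on streptavidin beads and running RT-PCR. Input and output libraries were Illumina-sequenced, with genotypes kept only at ≥10 input reads and ≥1 read per output. Fitness, from inverse-variance-weighted replicate averages, is the base-2 logarithm of genotype enrichment over wild-type enrichment.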

Variant | polymerase ribozyme fitness (log ratio)
G36U G44A G47A G48U G69U C82G A121C | 0.343
A29C G47U G60C C97U | -6
C13A C53G C70U | -2.31
A18G C82A C94U | -4.18
C8A G45U C56U C73U A84C A95U | -1.85
U59G C72G | -2.51
C8A G19C C82A | -1.97
C11U A41U G69C | -2.81
C13U G128A | -1.67
C70A C101G | -4.14
C8G C15A G63C | -0.139
U55A A66G C101G | -2.92
G39A A43U C86G | -1.99
C49U C85G | -2.2
C114A C115G G122C G127U | -5.32
U9G C102U | -1.48
C49A A68U G69C U112C U130A | -4.19
A83C C94A | -0.753
G44U G48U | -2.5
C73G C124U | 0.25
C3A C34U C79U C114A C124G G128U | -4.76

Variant | polymerase ribozyme fitness (log ratio)
C88A C101G A119U | -3.66
A5U C72U | -0.719
A26U U38G A43U C73G C76U A111G | -7.42
G36C C53U G61A U112A G113U | -1.83
U7C C124G | 1.82
A27G G60A | -1.17
G36C C123U | -0.107
G69C C99U | -3.79
C20A G61C U133G | -4.9
G10U G60A C123G C124A | 3.33
A29G G45U C73U U78G U87G | -2.9
U54C G110A | -1.29
C70G A103G | -4.93
A6G C49U G69U | -0.168
C56A G77C | -0.0761
G44U C72A | -1.04
C12U A18C C70U A75U U125G | -5.05
U21A A43C G63C | -4.13
G48A G107A | -7.39
A46G G57A A83G U112C | 0.022
A5U C12A C22G A27C U38G A111U | -2.81

Variant | polymerase ribozyme fitness (log ratio)
C34A A43U G61A C88U A119G A121C | -4.91
C53U C89U C104A C115U C124A U133G | -4.17
C8U G45C | -0.263
C3U G93A C102U | -2.82
C8A U96C C123A | 1.93
C62G U106G | -4.29
G61U C89U U92G | -3
C4U A43U G63C G93A | -3.29
U32A C114G | -4.17
C114A A119G C124G | 0.223
A2U A50U A95C C124A U125A | -2.49
C13U G45U G52A A83C A103U C114U G127A | -5.65
C20A A41U G71A | -4.76
G51U C62U | -3.78
C56G G58U U59C C124A | 1.88
C12A U21C C72G | -0.431
C28G U32G C62A A121C | -6.19
G23A C70U | -4.99
C82A C85A G120U | -0.479
G61C A90C U126A | -4.32
G61C U112C | 0.0988

Variant | polymerase ribozyme fitness (log ratio)
C3A C4G U7A U21A C40U G47U C114U | -3.96
G36C C49U C101G A119U | -3.31
U14G C49A U96A | -3.85
C40A G48A G61A U92A C94U A105G | -7.09
A6C U14G C94U C101G | -4.26
A27G G47C A100U | -4.85
U9G G69U | 0.642
G42C C72U G113C | -2.98
U9G A18U C56A U87G | -2.1
U21C G48U C53A G117A | -1.81
G36U C62A C123U G128C | -3.69
C4G A66G C72U C80U C123A | -2.88
G71U G93U C104U A119G | 0.516
A50G C62U U87A | -0.164
G17U G44A C62U A83U G117A | -5.24
G60A G63U U87A U92A C102A C115G G128U | -5.66
G44U G63C | -1.66
C114U U132A | -1.1
G63A G107U | -5.22
A37U G77A A111C | 0.0508
C13A A16G U133G | -2.57
